Earlier results, collected in patent publication US20200069786A1, “COMPOSITION AND PROCESS FOR PREPARING VACCINE” (TREOS BIO ZRT., priority 2018, published 2020).
Like-named read-outs stand apart in the source and are kept apart here.

B1: FTHL17 (protein, UniProt Q9BXU8 1-183, looked up)
Ferritin heavy …: MATAQPSQVRQKYDTNCDAAINSHITLELYTSYLYLSMAFYFNRDDVALENFFRYFLRLSDDKMEHAQKLMRLQNLRGGHICLHDIRKPECQGWESGLVAMESAFHLEKNVNQSLLDLYQLAVEKGDPQLCHFLESHYLHEQVKTIKELGGYVSNLRKICSPEAGLAEYLFDKLTLGGRVKET
B2: SPAG1 (protein, UniProt Q07617 1-926, looked up)
Sperm-associated antigen 1: MTTKDYPSLWGFGTTKTFKIPIEHLDFKYIEKCSDVKHLEKILCVLRSGEEGYYPELTEFCEKHLQALAPESRALRKDKPAATAASFTAEEWEKIDGDIKSWVSEIKKEEDKMHFHETETFPAMKDNLPPVRGSNSCLHVGKEKYSKRPTKKKTPRDYAEWDKFDVEKECLKIDEDYKEKTVIDKSHLSKIETRIDTAGLTEKEKDFLATREKEKGNEAFNSGDYEEAVMYYTRSISALPTVVAYNNRAQAEIKLQNWNSAFQDCEKVLELEPGNVKALLRRATTYKHQNKLREATEDLSKVLDVEPDNDLAKKTLSEVERDLKNSEAASETQTKGKRMVIQEIENSEDEEGKSGRKHEDGGGDKKPAEPAGAARAAQPCVMGNIQKKLTGKAEGGKRPARGAPQRGQTPEAGADKRSPRRASAAAAAGGGATGHPGGGQGAENPAGLKSQGNELFRSGQFAEAAGKYSAAIALLEPAGSEIADDLSILYSNRAACYLKEGNCSGCIQDCNRALELHPFSMKPLLRRAMAYETLEQYGKAYVDYKTVLQIDCGLQLANDSVNRLSRILMELDGPNWREKLSPIPAVPASVPLQAWHPAKEMISKQAGDSSSHRQQGITDEKTFKALKEEGNQCVNDKNYKDALSKYSECLKINNKECAIYTNRALCYLKLCQFEEAKQDCDQALQLADGNVKAFYRRALAHKGLKNYQKSLIDLNKVILLDPSIIEAKMELEEVTRLLNLKDKTAPFNKEKERRKIEIQEVNEGKEEPGRPAGEVSMGCLASEKGGKSSRSPEDPEKLPIAKPNNAYEFGQIINALSTRKDKEACAHLLAITAPKDLPMFLSNKLEGDTFLLLIQSLKNNLIEKDPSLVYQHLLYLSKAERFKMMLTLISKGQKELIEQLFEDLSDTPNNHFTLEDIQALKRQYEL
B3: MAGE-A9 (protein, UniProt P43362 1-315, looked up)
Melanoma-associated antigen 9: MSLEQRSPHCKPDEDLEAQGEDLGLMGAQEPTGEEEETTSSSDSKEEEVSAAGSSSPPQSPQGGASSSISVYYTLWSQFDEGSSSQEEEEPSSSVDPAQLEFMFQEALKLKVAELVHFLLHKYRVKEPVTKAEMLESVIKNYKRYFPVIFGKASEFMQVIFGTDVKEVDPAGHSYILVTALGLSCDSMLGDGHSMPKAALLIIVLGVILTKDNCAPEEVIWEALSVMGVYVGKEHMFYGEPRKLLTQDWVQENYLEYRQVPGSDPAHYEFLWGSKAHAETSYEKVINYLVMLNAREPICYPSLYEEVLGEEQEGV
B4: MAGE-A4 (protein, UniProt P43358 1-317, looked up)
Melanoma-associated antigen 4: MSSEQKSQHCKPEEGVEAQEEALGLVGAQAPTTEEQEAAVSSSSPLVPGTLEEVPAAESAGPPQSPQGASALPTTISFTCWRQPNEGSSSQEEEGPSTSPDAESLFREALSNKVDELAHFLLRKYRAKELVTKAEMLERVIKNYKRCFPVIFGKASESLKMIFGIDVKEVDPASNTYTLVTCLGLSYDGLLGNNQIFPKTGLLIIVLGTIAMEGDSASEEEIWEELGVMGVYDGREHTVYGEPRKLLTQDWVQENYLEYRQVPGSNPARYEFLWGPRALAETSYVKVLEHVVRVNARVRIAYPSLREAALLEEEEGV
B5: HOM-TES-85 (protein, UniProt Q9P127 1-313, looked up)
Leucine zipper protein 4: MASFRKLTLSEKVPPNHPSRKKVNFLDMSLDDIIIYKELEGTNAEEEKNKRQNHSKKESPSRQQSKAHRHRHRRGYSRCRSNSEEGNHDKKPSQKPSGFKSGQHPLNGQPLIEQEKCSDNYEAQAEKNQGQSEGNQHQSEGNPDKSEESQGQPEENHHSERSRNHLERSLSQSDRSQGQLKRHHPQYERSHGQYKRSHGQSERSHGHSERSHGHSERSHGHSERSHGHSKRSRSQGDLVDTQSDLIATQRDLIATQKDLIATQRDLIATQRDLIVTQRDLVATERDLINQSGRSHGQSERHQRYSTGKNTITT
B6: AKAP-3 (protein, UniProt O75969 1-853, looked up)
A-kinase anchor protein 3: MSEKVDWLQSQNGVCKVDVYSPGDNQAQDWKMDTSTDPVRVLSWLRRDLEKSTAEFQDVRFKPGESFGGETSNSGDPHKGFSVDYYNTTTKGTPERLHFEMTHKEIPCQGPRAQLGNGSSVDEVSFYANRLTNLVIAMARKEINEKIDGSENKCVYQSLYMGNEPTPTKSLSKIASELVNETVSACSRNAAPDKAPGSGDRVSGSSQSPPNLKYKSTLKIKESTKERQGPDDKPPSKKSFFYKEVFESRNGDYAREGGRFFPRERKRFRGQERPDDFTASVSEGIMTYANSVVSDMMVSIMKTLKIQVKDTTIATILLKKVLLKHAKEVVSDLIDSFLRNLHSVTGTLMTDTQFVSAVKRTVFSHGSQKATDIMDAMLRKLYNVMFAKKVPEHVRKAQDKAESYSLISMKGMGDPKNRNVNFAMKSETKLREKMYSEPKSEEETCAKTLGEHIIKEGLTLWHKTQQKECKSLGFQHAAFEAPNTQRKPASDISFEYPEDIGNLSLPPYPPEKPENFMYDSDSWAEDLIVSALLLIQYHLAQGGRRDARSFVEAAGTTNFPANEPPVAPDESCLKSAPIVGDQEQAEKKDLRSVFFNFIRNLLSETIFKRDQSPEPKVPEQPVKEDRKLCERPLASSPPRLYEDDETPGALSGLTKMAVSQIDGHMSGQMVEHLMNSVMKLCVIIAKSCDASLAELGDDKSGDASRLTSAFPDSLYECLPAKGTGSAEAVLQNAYQAIHNEMRGTSGQPPEGCAAPTVIVSNHNLTDTVQNKQLQAVLQWVAASELNVPILYFAGDDEGIQEKLLQLSAAAVDKGCSVGEVLQSVLRYEKERQLNEAVGNVTPLQLLDWLMVNL
B7: DPPA2 (protein, UniProt Q7Z7J5 1-298, looked up)
Developmental …: MSDANLDSSKKNFLEGEVDDEESVILTLVPVKDDANMEQMEPSVSSTSDVKLEKPKKYNPGHLLQTNEQFTAPQKARCKIPALPLPTILPPINKVCRDTLRDWCQQLGLSTNGKKIEVYLRLHRHAYPEQRQDMPEMSQETRLQRCSRKRKAVTKRARLQRSYEMNERAEETNTVEVITSAPGAMLASWARIAARAVQPKALNSCSIPVSVEAFLMQASGVRWCVVHGRLLSADTKGWVRLQFHAGQAWVPTTHRRMISLFLLPACIFPSPGIEDNMLCPDCAKRNKKMMKRLMTVEK
B8: SPAN-Xc (protein, UniProt Q9NY87 1-97, looked up)
Sperm protein associated with …: MDKQSSAGGVKRSVPCDSNEANEMMPETSSGYSDPQPAPKKLKTSESSTILVVRYRRNVKRTSPEELVNDHARENRINPLQMEEEEFMEIMVEIPAK
B9: AKAP-4 (protein, UniProt Q5JQC9 189-854, looked up)
A-kinase anchor protein 4: QSPSAPPAKPPSTQRAVISPDGECSIDDLSFYVNRLSSLVIQMAHKEIKEKLEGKSKCLHHSICPSPGNKERISPRTPASKIASEMAYEAVELTAAEMRGTGEESREGGQKSFLYSELSNKSKSGDKQMSQRESKEFADSISKGLMVYANQVASDMMVSLMKTLKVHSSGKPIPASVVLKRVLLRHTKEIVSDLIDSCMKNLHNITGVLMTDSDFVSAVKRNLFNQWKQNATDIMEAMLKRLVSALIGEEKETKSQSLSYASLKAGSHDPKCRNQSLEFSTMKAEMKERDKGKMKSDPCKSLTSAEKVGEHILKEGLTIWNQKQGNSCKVATKACSNKDEKGEKINASTDSLAKDLIVSALKLIQYHLTQQTKGKDTCEEDCPGSTMGYMAQSTQYEKCGGGQSAKALSVKQLESHRAPGPSTCQKENQHLDSQKMDMSNIVLMLIQKLLNENPFKCEDPCEGENKCSEPRASKAASMSNRSDKAEEQCQEHQELDCTSGMKQANGQFIDKLVESVMKLCLIMAKYSNDGAALAELEEQAASANKPNFRGTRCIHSGAMPQNYQDSLGHEVIVNNQCSTNSLQKQLQAVLQWIAASQFNVPMLYFMGDKDGQLEKLPQVSAKAAEKGYSVGGLLQEVMKFAKERQPDEAVGKVARKQLLDWLLANL

Test system: TSA
[1] = TSA expression rate in BLADDER cancer
[2] = TSA expression rate in Esophageal
[3] = TSA expression rate in HEAD and NECK
[4] = TSA expression rate in MELANOMA
[5] = TSA expression rate in PROSTATE cancer
[6] = TSA expression rate in LEUKEMIAS
[7] = TSA expression rate in Cervical cancer
[8] = TSA expression rate in GASTRIC cancer
[9] = TSA expression rate in LUNG cancer

Molecule	TSA Expression Rate (ER) (BRAIN) [%]	TSA Expression Rate (ER) (BREAST) [%]	TSA Expression Rate (ER) (LUNG) [%]	TSA Expression Rate (ER) (THYROID) [%]	Expression Rate (ER) % [1] [%]	Expression Rate (ER) % (TSA expression rate in CRC) [%]	Expression Rate (ER) % [2] [%]	Expression Rate (ER) % [3] [%]	Expression Rate (ER) % (TSA expression rate in Kidney) [%]	Expression Rate (ER) % [4] [%]	Expression Rate (ER) % [5] [%]	TSA Expression Rate (ER) (HCC) [%]	TSA Expression Rate (ER) (OVARIAN) [%]	TSA Expression Rate (ER) (PANCREATIC) [%]	Expression Rate (ER) % [6] [%]	Expression Rate (ER) % [7] [%]	Expression Rate (ER) % [8] [%]	Expression Rate (ER) % (TSA expression rate in PEDIATRIC) [%]	Expression Rate (ER) % [9] [%]	Expression Rate (ER) % (TSA expression rate in LYMPHOMAS) [%]
B1	82	14	25	0	22	0	0	10	0	0	0									
B2		31	71			55		7	11		27	11	31	93						
B3		44			61		55	44	55	12		5	37		9					
B4	11	9	27	0	27	18	76	42	17	30	0	7	37	2	36	23	24	41		
B5	10	47			0			4				19	32						11	14
B6		40	46			83						50	48				89			
B7			30			44							31				100			
B8		26			9	24	0			70		60	0	0	4		0		17	
B9		85	25			74					65		89			86				
